Assay results as given in patent US20250043302A1, “MUTATED HYDROXYPHENYLPYRUVATE DIOXYGENASE POLYPEPTIDE, AND CODING GENE AND USE THEREOF” (BEIJING DABEINONG BIOTECHNOLOGY CO., LTD., priority 2021, published 2025).
Where a chain is given by its changes, count along the chain named. Numbers in names are those of the source.

B1: GsHPPD-02: nucleotide sequence encoding wild-type Gossypium hirsutum HPPD; vector DBN11738 (nucleic acid)
DNA: ATGGTTCAAACAAATCAATCTGGTTCTGGGAATGATTTCAAGCTGGTTGGTTTCTCAAATTTTGTGCGTAGCAATCCCAAATCAGACCGCTTCACGGTCAAGAGATTCCACCACATTGAATTTTGGTGCACTGATGCCACTAATGTGGCGAGGAGGTTTTCATGGGGTTTAGGGATGCAGTTCGTCGCCAAGAGTGACCTCTCCACAGGAAATTTGACGCATGCAAGCTACCTGCTGCGGAGCCGCGACTTGAATTTCCTGTTTACAGCACCATATTCACCCAGTATTGCAGTTGCTCAAAACCTTTCGCCACAAAGCACTGCTTCCATACCTTCATTTGATCACTCGCTTTGTCGGTCCTTTGCTGCAACACATGGACTTGGCGTCAGAGCAATTGCCATCGAGGTGGACGACGCCGAAACTGCCTTCACCACGAGCGTGACACATGGCGCGCTCCCTTTTTGTCCACCAACACCACTAGGAGATGTGGCTACAATTGCTGAAGTTAAATTATATGGTGATGTTGTGCTCAGATATGTTTCTTACACCACAACCATCAACTCCGACCATGATTTTCTGCCTGGTTTTGAGAAGATTGAAGATACTCTATCGTATCCTTTGGATTATGGCCTGCGTCGGCTCGATCATGCTGTTGGCAACGTACCTGAATTAGGTCCTGCTGTATCTTATGTGAAATCTTTTACTGGGTTCCATGAGTTTGCAGAGTTCACCGCTGAGGATGTAGGAACAAGTGAATCTGGGCTGAACTCAGTTGTTTTGGCCAACAATGAGGAAATGGTCCTCTTACCAATGAACGAGCCGGTGTTCGGCACTAAGCGCAAATCTCAAATACAGACCTACTTGGAGCACAATGAAGGAGCTGGTGTGCAGCACCTCGCCCTCGTCTCGGAGGACATCTTCAAAACTTTAAGGGAGATGAGGAAACGATCCTTTGTGGGAGGATTTGAATTCATGCCTTCTCCGCCGCCGACATACTACAAGAAGCTCAAGCAGCGCGCGGGGGACATTTTGTCTGATGAGCAGATCAAGGAGTGTGAAGAGCTTGGGATTCTTGTTGATAGAGATGATCAAGGAACGCTTCTGCAGATATTTACCAAGCCCGTCGGCGACCGGCCTACTATATTCATTGAGATCATCCAGAGAATTGGTTGCATGGTGAAGGATGAAGAAGGGAAACAGTACCAGAAGGGCGGCTGCGGCGGGTTTGGAAAAGGAAACTTCAGTGAGCTGTTTAAAAGTATAGAGGAGTATGAAAAGAGCTTGGAAGCAAAACAATCACAAAATCCATGA
modifications: GsHPPD-02 Nucleotide Sequence
notes: vector DBN11738
B2: GsHPPDm-F372A-F383W-02: nucleotide sequence encoding Gossypium hirsutum HPPD with F372A+F383W; vector DBN11741 (nucleic acid)
DNA: B1 DNA with T1111G, T1112C, T1113C, T1145G, C1146G
modifications: GsHPPDm-F372A-F383W-02 Nucleotide Sequence
notes: vector DBN11741

Legend:
Format in all cases: in vivo
[1] = test system: Arabidopsis thaliana T1 plants; test: Topramezone tolerance of transgenic Arabidopsis thaliana T1 plants (spray, bleached leaf area grade, damage score); details: 7 DAT, Table 4; for Classification and statistics of the grade of pesticide damage: Grade 0 / Classification and statistics of the grade of pesticide damage: Grade 1 / Classification and statistics of the grade of pesticide damage: Grade 2 / Classification and statistics of the grade of pesticide damage: Grade 3: number of plants; for Scores: pesticide damage score 0-100
Summary of the method: (§1)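 Damage was assessed by bleaching grade (0 none; 1 <50%; 2 >50%; 3 100% of leaf area) one week after spraying. Sprays on 18-day-old T1 and wild-type plants used field-rate multiples: topramezone 25–200, isoxaflutole 35–280, mesotrione 52.5–420 g ai/ha.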

[2] = test system: Arabidopsis thaliana T1 plants; test: Isoxaflutole tolerance of transgenic Arabidopsis thaliana T1 plants (spray, bleached leaf area grade, damage score); design: Scores (pesticide damage): scale not given here; details: spray, Arabidopsis thaliana T1 plants; for Classification and statistics of the grade of pesticide damage: Grade 0 (number of plants) / Classification and statistics of the grade of pesticide damage: Grade 1 (number of plants) / Classification and statistics of the grade of pesticide damage: Grade 2 (number of plants) / Classification and statistics of the grade of pesticide damage: Grade 3 (number of plants): 16 plants
Summary of the method: as §1

[3] = test system: Arabidopsis thaliana T1 plants; test: Mesotrione tolerance of transgenic Arabidopsis thaliana T1 plants (spray, bleached leaf area grade, damage score); design: Scores: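 damage score 0-100 computed as Σ(N×S)/(T×M)×100 over grades 0-3 with higher meaning more damage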; details: Arabidopsis thaliana T1 plants; for Grade 0 (classification and statistics of the grade of pesticide damage; number of plants) / Grade 1 (classification and statistics of the grade of pesticide damage; number of plants) / Grade 2 (classification and statistics of the grade of pesticide damage; number of plants) / Grade 3 (classification and statistics of the grade of pesticide damage; number of plants): 16 plants
Summary of the method: as §1

[4] = isoxaflutole 35 g ai/ha (0.5x field concentration)
[5] = isoxaflutole 70 g ai/ha (1x field concentration)

Molecule	Classification and statistics of the grade of pesticide damage: Grade 0 ([1]; topramezone 25 g ai/ha (1×))	Classification and statistics of the grade of pesticide damage: Grade 1 ([1]; topramezone 25 g ai/ha (1×))	Classification and statistics of the grade of pesticide damage: Grade 2 ([1]; topramezone 25 g ai/ha (1×))	Classification and statistics of the grade of pesticide damage: Grade 3 ([1]; topramezone 25 g ai/ha (1×))	Classification and statistics of the grade of pesticide damage: Grade 0 ([1]; topramezone 100 g ai/ha (4×))	Classification and statistics of the grade of pesticide damage: Grade 1 ([1]; topramezone 100 g ai/ha (4×))	Classification and statistics of the grade of pesticide damage: Grade 2 ([1]; topramezone 100 g ai/ha (4×))	Classification and statistics of the grade of pesticide damage: Grade 3 ([1]; topramezone 100 g ai/ha (4×))	Scores ([1]; topramezone 25 g ai/ha (1×))	Scores ([1]; topramezone 100 g ai/ha (4×))	Resistance evaluation ([1]; topramezone 25 g ai/ha (1×))	Resistance evaluation ([1]; topramezone 100 g ai/ha (4×))	Resistance evaluation [2, 4]	Scores (pesticide damage) [2, 4]	Classification and statistics of the grade of pesticide damage: Grade 0 (number of plants) [2, 4]	Classification and statistics of the grade of pesticide damage: Grade 1 (number of plants) [2, 4]	Classification and statistics of the grade of pesticide damage: Grade 2 (number of plants) [2, 4]	Classification and statistics of the grade of pesticide damage: Grade 3 (number of plants) [2, 4]	Resistance evaluation [2, 5]	Scores (pesticide damage) [2, 5]	further results
B1	0	0	0	16	0	0	0	16	100	100	non-resistant (non-resistant plants (scores 68-100))	non-resistant (non-resistant plants (scores 68-100))	Non-resistant	100	0	0	0	16	Non-resistant	100	Classification and statistics of the grade of pesticide damage: Grade 0 (number of plants) [2, 5]: 0; Classification and statistics of the grade of pesticide damage: Grade 1 (number of plants) [2, 5]: 0; Classification and statistics of the grade of pesticide damage: Grade 2 (number of plants) [2, 5]: 0; Classification and statistics of the grade of pesticide damage: Grade 3 (number of plants) [2, 5]: 16; Resistance evaluation ([3]; mesotrione 52.5 g ai/ha): Non-resistant; Scores ([3]; mesotrione 52.5 g ai/ha): 100; Grade 0 (classification and statistics of the grade of pesticide damage; number of plants) ([3]; mesotrione 52.5 g ai/ha): 0; Grade 1 (classification and statistics of the grade of pesticide damage; number of plants) ([3]; mesotrione 52.5 g ai/ha): 0; Grade 2 (classification and statistics of the grade of pesticide damage; number of plants) ([3]; mesotrione 52.5 g ai/ha): 0; Grade 3 (classification and statistics of the grade of pesticide damage; number of plants) ([3]; mesotrione 52.5 g ai/ha): 16; Resistance evaluation ([3]; mesotrione 105 g ai/ha): Non-resistant; Scores ([3]; mesotrione 105 g ai/ha): 100; Grade 0 (classification and statistics of the grade of pesticide damage; number of plants) ([3]; mesotrione 105 g ai/ha): 0; Grade 1 (classification and statistics of the grade of pesticide damage; number of plants) ([3]; mesotrione 105 g ai/ha): 0; Grade 2 (classification and statistics of the grade of pesticide damage; number of plants) ([3]; mesotrione 105 g ai/ha): 0; Grade 3 (classification and statistics of the grade of pesticide damage; number of plants) ([3]; mesotrione 105 g ai/ha): 16
B2	16	0	0	0	5	7	2	2	0	35	highly	poorly	Highly	15	9	7	0	0	Poorly	48	Classification and statistics of the grade of pesticide damage: Grade 0 (number of plants) [2, 5]: 3; Classification and statistics of the grade of pesticide damage: Grade 1 (number of plants) [2, 5]: 5; Classification and statistics of the grade of pesticide damage: Grade 2 (number of plants) [2, 5]: 6; Classification and statistics of the grade of pesticide damage: Grade 3 (number of plants) [2, 5]: 2; Resistance evaluation ([3]; mesotrione 52.5 g ai/ha): Moderately; Scores ([3]; mesotrione 52.5 g ai/ha): 33; Grade 0 (classification and statistics of the grade of pesticide damage; number of plants) ([3]; mesotrione 52.5 g ai/ha): 3; Grade 1 (classification and statistics of the grade of pesticide damage; number of plants) ([3]; mesotrione 52.5 g ai/ha): 10; Grade 2 (classification and statistics of the grade of pesticide damage; number of plants) ([3]; mesotrione 52.5 g ai/ha): 3; Grade 3 (classification and statistics of the grade of pesticide damage; number of plants) ([3]; mesotrione 52.5 g ai/ha): 0; Resistance evaluation ([3]; mesotrione 105 g ai/ha): Non-resistant; Scores ([3]; mesotrione 105 g ai/ha): 77; Grade 0 (classification and statistics of the grade of pesticide damage; number of plants) ([3]; mesotrione 105 g ai/ha): 0; Grade 1 (classification and statistics of the grade of pesticide damage; number of plants) ([3]; mesotrione 105 g ai/ha): 0; Grade 2 (classification and statistics of the grade of pesticide damage; number of plants) ([3]; mesotrione 105 g ai/ha): 11; Grade 3 (classification and statistics of the grade of pesticide damage; number of plants) ([3]; mesotrione 105 g ai/ha): 5
